Assay results as given in patent US20020037840A1 (GENETICS INSTITUTE, published 2002).

T1: full length form of human PSGL-1 (human, UniProt Q14242 42-412)
T1 construct: whole, on cells; Expressed whole in COS cells and precipitated from the cell lysate with the biotinylated anti-PSGL-1 antibody 2G3; also called P-selectin glycoprotein ligand; CD162
T1 sequence (looked up): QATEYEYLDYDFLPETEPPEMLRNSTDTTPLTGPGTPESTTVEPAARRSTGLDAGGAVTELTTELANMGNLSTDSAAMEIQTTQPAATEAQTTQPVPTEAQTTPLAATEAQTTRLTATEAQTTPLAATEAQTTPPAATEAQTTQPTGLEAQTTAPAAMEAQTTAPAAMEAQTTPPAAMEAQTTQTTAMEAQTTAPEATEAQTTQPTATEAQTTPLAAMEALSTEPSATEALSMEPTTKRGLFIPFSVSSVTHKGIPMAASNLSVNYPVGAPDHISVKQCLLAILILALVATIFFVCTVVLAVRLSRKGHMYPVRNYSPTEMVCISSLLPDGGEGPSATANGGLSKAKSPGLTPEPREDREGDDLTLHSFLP

B1: T7-tagged truncated SLIC-1 protein comprising amino acid residues 1-160 (other)
chain: MASMTGGQQMGMASPEHPGSPGCMGPITQCTARTQQEAPATGPDLPHPGPDGHLDTHSGLSSNSSMTTRELQQYWQNQKCRWKHVKLLFEIASARIEERKVSKFVVYQIIVIQTGSFDNNKAVLERRYSDFAKLQKALLKTFREEIEDVEFPRKHLTGNFAEEMICERRRA
notes: Made with a linker; also called T7SLIC-1AA160; encoded by pED.T7U5AA160
B2: T7-tagged truncated SLIC-1 protein comprising amino acid residues 1-88 (other)
chain: MASMTGGQQMGMASPEHPGSPGCMGPITQCTARTQQEAPATGPDLPHPGPDGHLDTHSGLSSNSSMTTRELQQYWQNQKCRWKHVKLLFEIASARIEER
notes: also called T7SLIC-1AA88; encoded by PED.T7U5AA88

Biological target: T1, full length form of human PSGL-1
Assay: co-immunoprecipitation from COS cell lysates with anti-PSGL-1 antibody 2G3, anti-T7 Western blot
Protocol: COS cells were transfected with T7-tagged forms of SLIC-1 as described in Example 3. Vector pMT-PL85A (Genetics Institute) was included in a subset of samples to transiently overexpress the full length form of human PSGL-1. Cell lysis was carried out as described above in 900 μL/dish of lysis buffer consisting of 20 mM Tris-HCl, pH 7.4, 137 mM NaCl, 0.05% Triton-X and protease inhibitors (Hildt, E and Oess, S J 1999 J. Exp. Med. 189(11): 1707-1714). A small volume of cleared cell lysate was used for Western Blotting to detect overexpressed protein in the whole cell lysate and for spectrophotometric measurement of the protein content. A volume of 300 μL of each lysate was used for co-immunoprecipitation studies with either 2.5 μg of biotinylated monoclonal mouse anti-PSGL-1 antibody (antibody 2G3, Genetics Institute) or a biotinylated control antibody (SIGMA). The samples were agitated at 4° C. for 5 hours, and immuncomplexes were precipitated with streptavidin agarose beads (Pierce) under the same conditions for 1 hour. […] The presence of T7-tagged SLIC-1 protein in the samples was detected by Western blot analysis using an anti-T7 Horse Radish Peroxidase LumiBlot Kit (Novagen) according to the manufacturer's instructions.

Row | Binder | binding result
1 | B1 | no binding
2 | B2 | no binding
